Laboratory results from US6506881B1, “Anti-HMFG antibodies and processes for their production” (Celltech R&D Limited, priority 1991, dated 2003).

B1: gL1gH2: CDR-grafted light chain gL1 with CDR-grafted heavy chain gH2, transiently expressed (antibody, V domains shown)
VH: QIQLVQSGAEVKKPGSSVKVSCKASGYTFTDYYINWMRQAPGQGLEWIGWIDPGSGNTKYNEKFKGRATLTVDTSTNTAYMELSSLRSEDTAFYFCAREKTTYYYAMDYWGQGTLVTVSS
VL: DIQMTQSPSTLSASVGDRVTITCRSSKSLLHSNGDTFLYWFQQKPGKAPKLLMYRMSNLASGVPSRFSGSGSGTEFTLTISSLQPDDFATYYCMQHLEYPFTFGQGTKVEVKR
B2: gL1gH1: CDR-grafted light chain gL1 with CDR-grafted heavy chain gH1 (antibody, V domains shown)
VH: QIQLVQSGAEVKKPGSSVKVSCKASGYTFTDYYINWMRQAPGQGLEWMGWIDPGSGNTKYNEKFKGRVTITVDTSTNTAYMELSSLRSEDTAFYFCAREKTTYYYAMDYWGQGTLVTVSS
VL: DIQMTQSPSTLSASVGDRVTITCRSSKSLLHSNGDTFLYWFQQKPGKAPKLLMYRMSNLASGVPSRFSGSGSGTEFTLTISSLQPDDFATYYCMQHLEYPFTFGQGTKVEVKR
B3: hu1:CTMO1: CDR-grafted humanised CTMO1, gL1 light chain, gH2 heavy chain, human IgG2 constant domains, from NSO cells (antibody, V domains shown)
VH: QIQLVQSGAEVKKPGSSVKVSCKASGYTFTDYYINWMRQAPGQGLEWIGWIDPGSGNTKYNEKFKGRATLTVDTSTNTAYMELSSLRSEDTAFYFCAREKTTYYYAMDYWGQGTLVTVSS
VL: DIQMTQSPSTLSASVGDRVTITCRSSKSLLHSNGDTFLYWFQQKPGKAPKLLMYRMSNLASGVPSRFSGSGSGTEFTLTISSLQPDDFATYYCMQHLEYPFTFGQGTKVEVKR
B4: hu:CTMO1: CDR-grafted humanised CTMO1, gL1 light chain, gH2 heavy chain, altered human IgG4 (IgG4P) constant domains (antibody, V domains shown)
VH: QIQLVQSGAEVKKPGSSVKVSCKASGYTFTDYYINWMRQAPGQGLEWIGWIDPGSGNTKYNEKFKGRATLTVDTSTNTAYMELSSLRSEDTAFYFCAREKTTYYYAMDYWGQGTLVTVSS
VL: DIQMTQSPSTLSASVGDRVTITCRSSKSLLHSNGDTFLYWFQQKPGKAPKLLMYRMSNLASGVPSRFSGSGSGTEFTLTISSLQPDDFATYYCMQHLEYPFTFGQGTKVEVKR

Legend:
[1] = system: polymorphic epithelial mucin (PEM); assay: Direct binding ELISA on PEM-coated microwell plates, transiently expressed antibodies; set-up: species or system human; conditions: from all direct binding assays (FIG. 22, 23)
Procedure: Direct binding ELISA assays for determining the binding activity of the transiently expressed antibodies were carried out as follows.
An affinity column was prepared by attaching the CTM01 MAb to a suitable chromatographic medium in conventional manner. In a first method, pooled human urine samples were applied directly to the affinity column. In a second method, human milk was subjected to low speed centrifugation to separate the cream from skimmed milk. The skimmed milk was then subjected to high speed centrifugation to produce an aqueous and a lipid component. The aqueous component was applied to the affinity column.
Once the affinity column was loaded, by either of the two methods, column fractions were eluted at high and low pHs, neutralised and assayed for reactivity with the CTM01 MAb. Fractions showing reactivity were pooled and dialysed.
Microwell plates were coated with PEM obtained as described above. The microwells were then incubated with serial dilutions of culture supernatants.
Direct binding assays were carried out on the culture supernatants produced by the doubly transfected cell lines.

[2] = system: MCF-7 breast carcinoma cells; assay: In vitro cell binding and internalisation of 125I-labelled antibody, MCF-7; type: cell-based; conditions: MCF-7 cells; 125I-labelled antibody at 2 μg/million cells; continuous exposure
Procedure: (§1) Antibody, purified from the supernatant of each cultured cell line by protein-A sepharose chromatography was radiolabelled (^125I) and incubated using a conventional continuous exposure method with either MX-1 or MCF-7 breast carcinoma cells. Radiolabelled murine CTMO1 was used in all tests as a comparison. All antibodies were incubated at 2 μg/million cells. The total binding of antibodies to the cells and the peak net uptake of the antibodies by the cells was determined.

[3] = system: MX-1 breast carcinoma cells; assay: In vitro cell binding and internalisation of 125I-labelled antibody, MX-1; type: cell-based; conditions: MX-1 cells; 125I-labelled antibody at 2 μg/million cells; continuous exposure
Procedure: as §1

| Molecule | order of binding activity of antibodies produced by transient expression [1] | Peak Net Uptake (molecules/cell) [2] | Total Binding, 0° (molecules/cell) [2] | Peak Net Uptake (molecules/cell) [3] | Total Binding, 0° (molecules/cell) [3] |
| --- | --- | --- | --- | --- | --- |
| B1 | cLcH3>gL1ch=gL1gH2>cLgH2=gL2H2=gL1gH1=gL2cH>gL2gH1 |  |  |  |  |
| B2 | cLcH3>gL1ch=gL1gH2>cLgH2=gL2H2=gL1gH1=gL2cH>gL2gH1 |  |  |  |  |
| B3 |  | 150,000 molecules/cell | 650,000 molecules/cell | 150,000 molecules/cell | 1,200,000 molecules/cell |
| B4 |  | 90,000 molecules/cell | 450,000 molecules/cell | 150,000 molecules/cell | 1,100,000 molecules/cell |
